{
  "source": "paper PMC4644428",
  "binders": {"B1": {"name": "26-mer CRP consensus (dsDNA)", "DNA 1": "GTAAATGTGATGTACATCACATGGAT", "DNA 2": "ATCCATGTGATGTACATCACATTTAC"}},
  "key": {"[1]": {"target": "CRP (wild type) (UniProt P0ACJ8 1-210)", "assay": "fluorescence polarization"}, "[2]": {"target": "CRPG (UniProt P0ACJ8 1-210, R124N;T128C;S129T)", "assay": "fluorescence polarization"}},
  "data": [
    {"binder": "B1", "values": [
      {"measurement": "binding result", "setting": "[1]", "result": "binds"},
      {"measurement": "binding result", "setting": "[2]", "result": "binds"}
    ]}
  ]
}
